Data: the Immune Epitope Database (IEDB)

Tests used:
[1] = target: HLA-A*29:02; test: IEDB peptide-MHC binding, purified MHC/competitive/fluorescence; filed as Kd, often an IC50 or EC50 that approximates it; ≥ and ≤ were set here for values at or beyond the usual limits of such assays
[2] = target: HLA-B*15:03; test: IEDB peptide-MHC binding, purified MHC/competitive/radioactivity; filed as Kd, often an IC50 or EC50 that approximates it; ≥ and ≤ were set here for values at or beyond the usual limits of such assays
[3] = target: HLA-B*57:01; test: as above
[4] = target: HLA-B*58:01; test: as above
[5] = target: HLA-A*11:01; test: IEDB peptide-MHC binding, purified MHC/competitive/fluorescence; ≥ and ≤ were set here for values at or beyond the usual limits of such assays
[6] = target: HLA-A*30:01; test: IEDB peptide-MHC binding, purified MHC/competitive/radioactivity; filed as Kd, often an IC50 or EC50 that approximates it; ≥ and ≤ were set here for values at or beyond the usual limits of such assays; settings: source organism: Vaccinia virus WR
[7] = target: HLA-A*32:01; test: as above
[8] = target: HLA-B*08:01; test: as above; settings: source organism: Vaccinia virus WR
[9] = target: HLA-B*15:01; test: as above
[10] = target: HLA-A*02:01; test: IEDB peptide-MHC binding, purified MHC/direct/fluorescence; filed as Kd, often an IC50 or EC50 that approximates it; ≥ and ≤ were set here for values at or beyond the usual limits of such assays
[11] = target: HLA-A*02:11; test: as above
[12] = target: HLA-A*02:12; test: as above
[13] = target: HLA-A*02:19; test: as above
[14] = target: HLA-A*01:01; test: IEDB peptide-MHC binding, purified MHC/competitive/radioactivity; filed as Kd, often an IC50 or EC50 that approximates it; ≥ and ≤ were set here for values at or beyond the usual limits of such assays; settings: source organism: Dengue virus 2 Jamaica/1409/1983
[15] = target: HLA-A*30:02; test: as above; settings: source organism: Dengue virus 2 Jamaica/1409/1983
[16] = target: HLA-A*01:01; test: IEDB peptide-MHC binding, purified MHC/direct/fluorescence; filed as Kd, often an IC50 or EC50 that approximates it; ≥ and ≤ were set here for values at or beyond the usual limits of such assays
[17] = target: HLA-A*29:02; test: as above
[18] = target: HLA-A*02:01; test: IEDB peptide-MHC binding, purified MHC/competitive/fluorescence; ≥ and ≤ were set here for values at or beyond the usual limits of such assays; settings: source organism: Zaire ebolavirus
[19] = target: HLA-A*24:02; test: as above
[20] = target: HLA-A*26:01; test: IEDB peptide-MHC binding, purified MHC/competitive/fluorescence; filed as Kd, often an IC50 or EC50 that approximates it; ≥ and ≤ were set here for values at or beyond the usual limits of such assays; settings: source organism: Salmonella enterica subsp. enterica serovar Typhi
[21] = target: HLA-B*15:01; test: as above
[22] = target: HLA-B*35:01; test: as above
[23] = target: HLA-A*68:02; test: as above
[24] = target: HLA-A*03:01; test: as above
[25] = target: HLA-A*03:01; test: IEDB peptide-MHC binding, purified MHC/direct/fluorescence; filed as Kd, often an IC50 or EC50 that approximates it; ≥ and ≤ were set here for values at or beyond the usual limits of such assays; settings: source organism: Mycobacterium avium 104
[26] = target: HLA-A*11:01; test: as above; settings: source organism: Mycobacterium avium 104
[27] = target: HLA-A*31:01; test: as above; settings: source organism: Mycobacterium avium 104
[28] = target: HLA-A*69:01; test: as above; settings: source organism: Mycobacterium avium 104
[29] = target: HLA-B*08:01; test: as above; settings: source organism: Mycobacterium avium 104
[30] = target: HLA-B*18:01; test: as above; settings: source organism: Mycobacterium avium 104
[31] = target: HLA-B*27:05; test: as above; settings: source organism: Mycobacterium avium 104
[32] = target: HLA-B*40:01; test: as above; settings: source organism: Mycobacterium avium 104
[33] = target: HLA-B*44:02; test: as above; settings: source organism: Mycobacterium avium 104
[34] = target: HLA-B*48:01; test: as above; settings: source organism: Mycobacterium avium 104
[35] = target: HLA-B*58:01; test: as above; settings: source organism: Mycobacterium avium 104
[36] = target: HLA-A*24:02; test: IEDB peptide-MHC binding, purified MHC/competitive/radioactivity; filed as Kd, often an IC50 or EC50 that approximates it; ≥ and ≤ were set here for values at or beyond the usual limits of such assays; settings: source organism: Dengue virus 1 Singapore/S275/1990
[37] = target: HLA-A*68:01; test: as above; settings: source organism: Dengue virus 3 Martinique/1243/1999
[38] = source organism: Vaccinia virus WR
[39] = source organism: Dengue virus 4 Philippines/H241/1956
[40] = source organism: Vaccinia virus
[41] = source organism: Orthohantavirus tulaense
[42] = source organism: Dengue virus 2 Jamaica/1409/1983
[43] = source organism: Bacillus anthracis str. A0488
[44] = source organism: Cryptosporidium parvum Iowa II
[45] = source organism: Zaire ebolavirus
[46] = source organism: Salmonella enterica subsp. enterica serovar Typhi
[47] = source organism: Dengue virus 1 Brazil/97-11/1997
[48] = source organism: Pan troglodytes
[49] = source organism: Vaccinia virus Copenhagen
[50] = source organism: Hantaanvirus CGRn93P8
[51] = source organism: Mycobacterium avium 104
[52] = source organism: Dengue virus 1 Singapore/S275/1990
[53] = source organism: Yersinia pestis Nepal516

Q: Which Kd ([1]; source organism: Mycobacterium leprae) does the source give for YMYIMKLHH here?
A: 36 nM

Q: How did the Kd [2, 38] turn out when YQTSVSQVA was run?
A: 1.45 nM

Q: How did the Kd [3, 39] turn out when ATGPVLTLW was run?
A: 2.48 nM

Q: What about the Kd [4, 39] of the same sequence?
A: 0.422 nM

Q: With VGVVVSTNR as the sequence, how does the IC50 [5, 40] read?
A: 21500 nM

Q: For VMVTSKPLF, which Kd [6] is on record?
A: 15600 nM

Q: And the Kd [7, 38]?
A: 18100 nM

Q: And the Kd [8]?
A: 3540 nM

Q: What about the Kd [9, 38] of the same sequence?
A: 15.9 nM

Q: What about the Kd [2, 38] of the same sequence?
A: 8.79 nM

Q: Which results are given for KLYEGDLRV?
A: Kd ([10]; source organism: Orthohantavirus andesense): ≤ 1 nM; Kd [11, 41]: ≤ 1 nM; Kd [12, 41]: 5 nM; Kd [13, 41]: 8 nM

Q: How did the Kd [14] turn out when RSLIGNEEY was run?
A: 6720 nM

Q: And the Kd [15]?
A: ≥ 30100 nM

Q: And the Kd [4, 42]?
A: 27.2 nM

Q: How did the Kd [1, 43] turn out when VSRLFWYGY was run?
A: 75.9 nM

Q: For ILVPNINIL, which Kd [2, 38] is on record?
A: 600 nM

Q: For DTDPLPVVF, which Kd ([16]; source organism: Mycobacterium tuberculosis variant bovis) is on record?
A: 236 nM

Q: And the Kd ([17]; source organism: Mycobacterium tuberculosis str. Haarlem)?
A: ≥ 20000 nM

Q: SMIDNSHLE was tested. Which Kd [1, 44] did it give?
A: 68.3 nM

Q: With SSGYYSTTI as the sequence, how does the IC50 [18] read?
A: 65200 nM

Q: And the IC50 [5, 45]?
A: 33800 nM

Q: And the IC50 [19, 45]?
A: 2140 nM

Q: Which results are given for ATGPISTLW?
A: Kd [3, 42]: 1.42 nM; Kd [4, 42]: 1.49 nM

Q: For LTSLGKAVHQ, which Kd [3, 39] is on record?
A: ≥ 70400 nM

Q: With MMVSTENNL as the sequence, how does the Kd [2, 38] read?
A: 11 nM

Q: FAHDDRYLY was tested. Which Kd [20] did it give?
A: 54.4 nM

Q: What about the Kd [21, 46] of the same sequence?
A: 200 nM

Q: What about the Kd [22, 46] of the same sequence?
A: 0.2 nM

Q: Which results are given for PYEGGKVFA?
A: IC50 [5, 40]: ≥ 118000 nM; IC50 [19, 40]: 13900 nM

Q: How did the Kd [23, 43] turn out when SSIIKTFVV was run?
A: 17.9 nM

Q: IKTMMINPF was tested. Which Kd [2, 38] did it give?
A: 0.191 nM

Q: How did the Kd [7, 47] turn out when KQIQKVETW was run?
A: 49.5 nM

Q: And the Kd [3, 47]?
A: 460 nM

Q: And the Kd [4, 47]?
A: 4.77 nM

Q: For AQYASTLSV, which Kd [2, 38] is on record?
A: 0.162 nM

Q: SIYFLRGNH was tested. Which Kd ([24]; source organism: Entamoeba histolytica HM-1:IMSS) did it give?
A: ≥ 20000 nM

Q: Which Kd [23, 44] does the source give for FTAYYLILA here?
A: 9.7 nM

Q: Which Kd [2, 38] does the source give for NKVLCISFF here?
A: 41.4 nM

Q: NVTTQSIHE was tested. Which IC50 [5, 40] did it give?
A: ≥ 148000 nM

Q: Which Kd [2, 38] does the source give for SQFTCSLAV here?
A: 1.47 nM

Q: Which Kd [3, 42] does the source give for VTRLENLMW here?
A: 3.79 nM

Q: YRAVVPLVY was tested. Which Kd [3, 48] did it give?
A: 12600 nM

Q: And the Kd [4, 48]?
A: 1500 nM

Q: GTSGSPIVDR was tested. Which Kd [3, 42] did it give?
A: 2340 nM

Q: With IIFMNLYSF as the sequence, how does the Kd [7, 49] read?
A: 1.25 nM

Q: And the Kd [2, 49]?
A: 10.7 nM

Q: How did the Kd [3, 42] turn out when ASGKLITEW was run?
A: 4.7 nM

Q: And the Kd [4, 42]?
A: 13.5 nM

Q: For KGVEYNIDK, which IC50 [5, 40] is on record?
A: 31600 nM

Q: For TLAQSLIDV, which Kd ([10]; source organism: Orthohantavirus hantanense) is on record?
A: ≤ 1 nM

Q: What about the Kd [11, 50] of the same sequence?
A: 2 nM

Q: What about the Kd [12, 50] of the same sequence?
A: 4 nM

Q: What about the Kd [13, 50] of the same sequence?
A: 6 nM

Q: For ATMATRRGY, which Kd ([24]; source organism: Escherichia coli) is on record?
A: 125 nM

Q: Which results are given for KVREHTFVK?
A: Kd [6]: 2.12 nM; Kd [7, 38]: 148 nM; Kd [8]: ≥ 45400 nM; Kd [9, 38]: 4120 nM; Kd [2, 38]: 19300 nM

Q: For IAHVRDVVM, which Kd [16, 51] is on record?
A: ≥ 20000 nM

Q: What about the Kd [10, 51] of the same sequence?
A: ≥ 20000 nM

Q: And the Kd [25]?
A: ≥ 20000 nM

Q: And the Kd [26]?
A: ≥ 20000 nM

Q: What about the Kd [17, 51] of the same sequence?
A: ≥ 20000 nM

Q: And the Kd [27]?
A: ≥ 20000 nM

Q: And the Kd [28]?
A: ≥ 20000 nM

Q: And the Kd [29]?
A: 182 nM

Q: And the Kd [30]?
A: ≥ 20000 nM

Q: What about the Kd [31] of the same sequence?
A: ≥ 20000 nM

Q: What about the Kd [32] of the same sequence?
A: ≥ 20000 nM

Q: What about the Kd [33] of the same sequence?
A: ≥ 20000 nM

Q: And the Kd [34]?
A: ≥ 20000 nM

Q: And the Kd [35]?
A: ≥ 20000 nM

Q: Which results are given for FASALTALND?
A: Kd [3, 42]: 636 nM; Kd [4, 42]: 1570 nM

Q: Which Kd [4, 42] does the source give for WMSSEGAWKH here?
A: 215 nM

Q: For KQIQRVETW, which Kd [36] is on record?
A: 8580 nM

Q: And the Kd [7, 52]?
A: 21.1 nM

Q: And the Kd [9, 52]?
A: 67.8 nM

Q: What about the Kd [3, 52] of the same sequence?
A: 44.1 nM

Q: What about the Kd [4, 52] of the same sequence?
A: 10.8 nM

Q: GTDSNGMLW was tested. Which Kd ([16]; source organism: Mycobacterium tuberculosis) did it give?
A: 74.8 nM

Q: And the Kd ([17]; source organism: Mycobacterium tuberculosis H37Rv)?
A: ≥ 20000 nM

Q: For GTSGSPIINR, which Kd [37] is on record?
A: 13.8 nM

Q: And the Kd ([3]; source organism: Dengue virus 3 Martinique/1243/1999)?
A: 4000 nM

Q: What does the source list for SKYAGINIL?
A: Kd [6]: 546 nM; Kd [7, 38]: 16100 nM; Kd [8]: 16300 nM; Kd [9, 38]: 5640 nM; Kd [2, 38]: 0.271 nM

Q: Which IC50 [5, 45] does the source give for SIPLGVIHN here?
A: ≥ 158000 nM

Q: What does the source list for FSKKKVCFV?
A: Kd [6]: 1160 nM; Kd [7, 38]: ≥ 35400 nM; Kd [8]: 5.98 nM; Kd [9, 38]: 1850 nM; Kd [2, 38]: 13100 nM

Q: IKENSIYSF was tested. Which Kd [2, 38] did it give?
A: 1.45 nM

Q: Which results are given for LASSLLKNDI?
A: Kd [3, 42]: 1280 nM; Kd [4, 42]: 717 nM

Q: For QKMHNHYAY, which Kd ([1]; source organism: Escherichia coli HS) is on record?
A: 19.9 nM

Q: NSYTLLLAY was tested. Which Kd [21, 53] did it give?
A: 676 nM

Q: What about the Kd [22, 53] of the same sequence?
A: 49 nM
